The labels stand for the following.
B1: Recombinant human endostatin produced in HEK 293-EBNA cells (wild type) (domain or fragment, UniProt P39060 1572-1754, looked up)
chain: HSHRDFQPVLHLVALNSPLSGGMRGIRGADFQCFQQARAVGLAGTFRAFLSSRLQDLYSIVRRADRAAVPIVNLKDELLFPSWEALFSGSEGPLKPGARIFSFDGKDVLRHPTWPQKSVWHGSDPNGRRLTESYCETWRTEAPSATGQASSLLGGRLLGQSAASCHHAYIVLCIENSFMTASK
B2: Recombinant human transglutaminase-2 (enzyme, UniProt P21980 1-687, looked up)
chain: MAEELVLERCDLELETNGRDHHTADLCREKLVVRRGQPFWLTLHFEGRNYEASVDSLTFSVVTGPAPSQEAGTKARFPLRDAVEEGDWTATVVDQQDCTLSLQLTTPANAPIGLYRLSLEASTGYQGSSFVLGHFILLFNAWCPADAVYLDSEEERQEYVLTQQGFIYQGSAKFIKNIPWNFGQFEDGILDICLILLDVNPKFLKNAGRDCSRRSSPVYVGRVVSGMVNCNDDQGVLLGRWDNNYGDGVSPMSWIGSVDILRRWKNHGCQRVKYGQCWVFAAVACTVLRCLGIPTRVVTNYNSAHDQNSNLLIEYFRNEFGEIQGDKSEMIWNFHCWVESWMTRPDLQPGYEGWQALDPTPQEKSEGTYCCGPVPVRAIKEGDLSTKYDAPFVFAEVNADVVDWIQQDDGSVHKSINRSLIVGLKISTKSVGRDEREDITHTYKYPEGSSEEREAFTRANHLNKLAEKEETGMAMRIRVGQSMNMGSDFDVFAHITNNTAEEYVCRLLLCARTVSYNGILGPECGTKYLLNLNLEPFSEKSVPLCILYEKYRDCLTESNLIKVRALLVEPVINSYLLAERDLYLENPEIKIRILGEPKQKRKLVAEVSLQNPLPVALEGCTFTVEGAGLTEEQKTVEIPDPVEAGEEVKVRMDLLPLHMGLHKLVVNFESDKLKAVKGFRNVIIGPA

For experiment [1], the target named is Recombinant human endostatin produced in HEK 293-EBNA cells (wild type) (human) (UniProt P39060). The experiment is described as follows: SPR. Background: In SPR one partner is held on a chip, and binding of the other changes the refractive index at the surface.
Experiment [2] concerns the target Recombinant human endostatin expressed in Pichia pastoris (human) (UniProt P39060). The experiment is described as follows: SPR.
Experiment [3] concerns the target NC1(XVIII) domain R27A/R139A double mutant (human). The experiment is described as follows: ELISA. For orientation: ELISA stands for enzyme-linked immunosorbent assay.
In experiment [4] the target is B2. The experiment is described as follows: SPR.
Experiment [5] has as its target B1. The experiment is described as follows: ELISA.

A word on the Kd: it is the equilibrium constant for the complex coming apart. Broadly, the koff is a measure of how fast the partners let go of each other. What is called kon is the second-order rate constant of association.

For the molecule “Guinea pig TG-2 extracted from liver (enzyme)”, in experiment [1], the Kd worked out at 6.8 nM, the koff turned out to be 0.000765 s⁻¹, the kon worked out at 112000 M⁻¹ s⁻¹ and the percent inhibition of binding by 1 mM GTP came to 96.7%. Further, in experiment [2], the Kd stood at 5.59 nM and the koff came out at 0.000341 s⁻¹.
For “Recombinant human transglutaminase-2 (from UniProt P21980 1-687) (enzyme)”, in experiment [3], the percent of the binding of the wild type NC1 domain amounted to 31%.
As for B1, the binding result in experiment [4] is reported as “binds”.
B2: in experiment [5], the “fold increase of binding with 8 mM CaCl2 against no cation” value is ~38 fold, the “fold increase of binding with 8 mM MgCl2 against no cation” value is ~2 fold and the “fold increase of binding with 8 mM MnCl2 against no cation” value is ~10 fold.
